T1: CD70 expressed on the surface of 786-O renal cell carcinoma cells (Homo sapiens, UniProt P32970)
T1 construct: natively expressing CD70+ human cancer cell line 786-0 cells; endogenous in cells; host or cells: 786-O (ATCC CRL-1932), A-498 (HTB-44), ACHN (CRL-1611), Caki-1 (HTB-46), Caki-2 (HTB-47)
T1 sequence (P32970 1-193): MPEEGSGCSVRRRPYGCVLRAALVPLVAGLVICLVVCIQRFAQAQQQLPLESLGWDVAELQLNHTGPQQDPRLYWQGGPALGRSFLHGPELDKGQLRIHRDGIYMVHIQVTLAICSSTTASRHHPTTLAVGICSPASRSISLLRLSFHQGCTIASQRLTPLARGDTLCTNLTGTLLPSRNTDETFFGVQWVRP


Molecular target: T1, CD70 expressed on the surface of 786-O renal cell carcinoma cells
Test: Flow cytometry binding to 786-O cells
Experimental: Anti-CD70 antibodies were tested for binding to renal cell carcinoma cells expressing CD70 on their cell surface by flow cytometry.
The renal cell carcinoma cell lines A-498 (ATCC Accession No. HTB-44), 786-O (ATCC Accession No. CRL-1932), ACHN (ATCC Accession No. CRL-1611), Caki-1 (ATCC Accession No. HTB-46) and Caki-2 (ATCC Accession No. HTB-47) were each tested for antibody binding. Binding of the HuMAb 2H5 anti-CD70 human monoclonal antibody was assessed by incubating 1×10^5 cells with 2H5 at a concentration of 1 μg/ml. The cells were washed and binding was detected with a FITC-labeled anti-human IgG Ab. Flow cytometric analyses were performed using a FACSCalibur flow cytometry (Becton Dickinson, San Jose, Calif.). The anti-CD70 monoclonal antibody 2H5 bound to the renal carcinoma cell lines A-498, 786-O, ACHN, Caki-1 and Caki-2.
The renal cell carcinoma cell lines 786-O and A-498 were tested for binding of the HuMAb anti-CD70 human monoclonal antibodies 2H5, 8B5, 10B4 and 18E7 at different concentrations. Binding of the anti-CD70 human monoclonal antibodies was assessed by incubating 5×10^5 cells with antibody at a starting concentration of 50 μg/ml and serially diluting the antibody at a 1:3 dilution. The cells were washed and binding was detected with a PE-labeled anti-human IgG Ab. Flow cytometric analyses were performed using a FACSCalibur flow cytometry (Becton Dickinson, San Jose, Calif.). The results are shown in FIG. 18A (786-O) and FIG. 18B (A-498). […]
Binding of the HuMAb 2H5 and 69A7 anti-CD70 human monoclonal antibodies to the renal cell carcinoma cell line 786-O was assessed by incubating 2×10^5 cells with either 2H5 or 69A7 at a concentration of 10 μg/ml. […] The cells were washed and binding was detected with a FITC-labeled anti-human IgG Ab. […]
The renal cell carcinoma cell line 786-O was tested for binding of the HuMAb anti-CD70 human monoclonal antibody 69A7 at different concentrations. Binding of the anti-CD70 human monoclonal antibodies was assessed by incubating 5×10^5 cells with antibody at a starting concentration of 10 μg/ml and serially diluting the antibody at a 1:3 dilution. The cells were washed and binding was detected with a PE-labeled anti-human IgG Ab. […]
The Daudi lymphoma cell line and 786-O renal carcinoma cell were further tested for antibody binding. Binding of the HuMAb 69A7 anti-CD70 human monoclonal antibody was assessed by incubating 2×10^5 cells with 69A7 at a concentration of 1 μg/ml. The cells were washed and binding was detected with a FITC-labeled anti-human IgG Ab. […] The anti-CD70 monoclonal antibody 69A7 bound to the Daudi lymphoma cell line and 786-O renal carcinoma cell line, as measured by the mean fluorescent intensity (MFI) of staining. […]

binding to 786-O at different concentrations (MFI) (1:3 serial dilution from 50 μg/ml (69A7: from 10 μg/ml))	binding to 786-O cells (antibody 1 μg/ml, FITC-labeled anti-human IgG)	binding to 786-O cells (antibody 10 μg/ml)	Molecule	relative binding to 786-0 cells (30 to 0.01 ug/ml, flow cytometry)
concentration dependent	bound	bound	anti-CD70 human monoclonal antibody 69A7 (antibody, V domains shown, Human IgG from hybridoma; also called HuMAb 69A7; FITC-conjugated 69A7) VH: QVQLQESGPGLVKPSETLSLTCTVSGGSVSSDYYYWSWIRQPPGKGLEWLGYIYYSGSTNYNPSLKSRVTISVDTSKNQFSLKLRSVTTADTAVYYCARGDGDYGGNCFDYWGQGTLVTVSS VL: EIVLTQSPATLSLSPGERATLSCRASQSVSSYLAWYQQKPGQAPRLLIFDASNRATGIPARFSGSGSGTDFTLTISSLEPEDFAVYYCQQRSNWPLTFGGGTKVEIK	–
–	–	–	2H5 NF: 2H5 HuMAb lacking fucosyl residues, expressed in CHO cell line Ms704-PF (antibody, V domains shown) VH: QVQLVESGGGVVQPGRSLRLSCAASGFTFSSYIMHWVRQAPGKGLEWVAVISYDGRNKYYADSVKGRFTISRDNSKNTLYLQMNSLRAEDTAVYYCARDTDGYDFDYWGQGTLVTVSS VL: EIVLTQSPATLSLSPGERATLSCRASQSVSSYLAWYQQKPGQAPRLLIYDASNRATGIPARFSGSGSGTDFTLTISSLEPEDFAVYYCQQRTNWPLTFGGGTKVEIK	binds at lower concentration than 1F4 and 1F4 NF
